Results published in paper PMC9522936, “Regain flood adaptation in rice through a 14-3-3 protein OsGF14h” (Nature Communications, 2022).
One block for each binder: values may come before it.

What was measured:
His-OsGF14h^SN9816 = biological target: T1, His-OsGF14h^SN9816 (rice (Oryza sativa), japonica variety …, UniProt Q2R1D5 1-230); test: pull-down; GST-OsHOX3 or GST-OsVP1 as bait on GST beads, equal quantities of recombinant proteins in GST pull-down buffer at 4 °C overnight, His-OsGF14h detected by anti-His; conditions: both partners purified
T1 construct: also called Hap1; source: E. coli Rosetta (DE3), purified (Ni NTA beads)
T1 sequence (looked up): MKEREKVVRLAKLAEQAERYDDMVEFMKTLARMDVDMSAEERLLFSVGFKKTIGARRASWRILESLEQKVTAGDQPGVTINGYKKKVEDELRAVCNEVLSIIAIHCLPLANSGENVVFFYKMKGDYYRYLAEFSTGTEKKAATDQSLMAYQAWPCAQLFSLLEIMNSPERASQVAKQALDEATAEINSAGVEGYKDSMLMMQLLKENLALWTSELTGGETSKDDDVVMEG

OsHOX3 = biological target: T2, OsHOX3 (Oryza sativa, UniProt Q9XH38 1-229); test: EMSA; without OsGF14h; Chemiluminescent EMSA Kit GS009 (Beyotime) per manufacturer; 6% native polyacrylamide gel; unlabeled competitor 10x and 20x; buffer, pH and temperature not stated; conditions: protein: recombinant; tags: GST (pGEX4T-1; N-terminal); chain copies: 2; label: biotin 3' end; blunt
T2 sequence: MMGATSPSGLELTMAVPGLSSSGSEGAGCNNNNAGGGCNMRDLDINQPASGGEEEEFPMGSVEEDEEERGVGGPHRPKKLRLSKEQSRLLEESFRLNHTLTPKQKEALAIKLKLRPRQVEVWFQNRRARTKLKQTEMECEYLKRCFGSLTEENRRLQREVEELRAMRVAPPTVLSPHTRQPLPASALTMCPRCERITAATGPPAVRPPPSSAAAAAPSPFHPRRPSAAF

binding result (His-OsGF14h^SN9816): binds
B1: GST-OsHOX3 (natural protein, rice, UniProt Q0JKX1 1-229, looked up)
chain: T2 sequence
notes: HD-Zip family transcription factor OsHOX3, rice; source: E. coli Rosetta (DE3), purified (GST beads)

B2: OsPYL5 promoter HD-ZIP3 probe (55 bp) (dsDNA)
DNA 1: AATATAAAACGGTGGGAGTATTAATGATTACATAGTCAATTTTATGTTTGCATTA
DNA 2: TAATGCAAACATAAAATTGACTATGTAATCATTAATACTCCCACCGTTTTATATT
binding result (OsHOX3): binds
